Data set [1] has as its system O=C(O)Cc1ccccc1Nc1c(Cl)cccc1Cl. The note with it: 60 uM.
Description: ([14C]- AA) and its uptake mediated by sodium-dependent ascorbate transporters, SVCT2 measured as Maximum velocity (Vmax) at concentration of 60 uM
The test system of data set [2] is O=C(O)Cc1ccccc1Nc1c(Cl)cccc1Cl. As to conditions: 6 uM.
Description: ([14C]- AA) and its uptake mediated by sodium-dependent ascorbate transporters, SVCT2 measured as Maximum velocity (Vmax) at concentration of 6 uM
Data set [3] concerns O=C(O)Cc1ccccc1Nc1c(Cl)cccc1Cl. The note with it: 120 uM.
Description: ([14C]- AA) and its uptake mediated by sodium-dependent ascorbate transporters, SVCT2 measured as Maximum velocity (Vmax) at concentration of 120 uM
Data set [4] relates to O=C(O)Cc1ccccc1Nc1c(Cl)cccc1Cl. The note with it: 24 uM.
Description: ([14C]- AA) and its uptake mediated by sodium-dependent ascorbate transporters, SVCT2 measured as Maximum velocity (Vmax) at concentration of 24 uM
The test system of data set [5] is O=C(O)Cc1ccccc1Nc1c(Cl)cccc1Cl. The note with it: 12 uM.
Description: ([14C]- AA) and its uptake mediated by sodium-dependent ascorbate transporters, SVCT2 measured as Maximum velocity (Vmax) at concentration of 12 uM
Data set [6] has as its target Solute carrier family 23 member 2 (Homo sapiens) (UniProt Q9UGH3). The note with it: 12 uM.
Description: [14C]- AA uptake mediated by sodium-dependent ascorbate transporters, SVCT2 measured as Michaelis-Menten constant (Kt) at a concentration of 12 uM
Data set [7] shares this target. The note with it: 6 uM.
Description: [14C]- AA uptake mediated by sodium-dependent ascorbate transporters, SVCT2 measured as Michaelis-Menten constant (Kt) at a concentration of 6 uM
Data set [8] has the same target. The note with it: 60 uM.
Description: [14C]- AA uptake mediated by sodium-dependent ascorbate transporters, SVCT2 measured as Michaelis-Menten constant (Kt) at a concentration of 60 uM
Data set [9] shares this target. The note with it: 120 uM.
Description: [14C]- AA uptake mediated by sodium-dependent ascorbate transporters, SVCT2 measured as Michaelis-Menten constant (Kt) at a concentration of 120 uM
Data set [10] shares this target. The note with it: 24 uM.
Description: [14C]- AA uptake mediated by sodium-dependent ascorbate transporters, SVCT2 measured as Michaelis-Menten constant (Kt) at a concentration of 24 uM

On to “Solute carrier family 23 member 2 (Homo sapiens), Q9UGH3”, for which the Vmax (nM hr-1 (10e6*cells)-1) stood at 0.49 in data set [1]; 3.1 in data set [2]; 0.26 in [3]; 1.4 in [4]; 2 in [5].
On to `O=C(O)Cc1ccccc1Nc1c(Cl)cccc1Cl`, for which the Kt in [6] worked out at 29 µM; in data set [7], 32 µM; in data set [8] it was 29 µM; in data set [9], 28 µM; in data set [10] it was 31 µM.
